Where a chain is given by its changes, count along the chain named. Names and notes keep the numbering of the source. * marks the point of attachment. FITC = O=C1OC2(c3ccc(O)cc3Oc3cc(O)ccc32)c2ccc(NC(=S)*)cc21; βAla = NCCC(=O)O
Tests used:
[1] = molecular target: T1, NorA (S. aureus quinolone efflux pump), C-terminal decahistidine tag, in PMAL-C8 amphipol (S. aureus, UniProt Q5HHX4 1-388); assay: fluorescence polarisation
T1 sequence: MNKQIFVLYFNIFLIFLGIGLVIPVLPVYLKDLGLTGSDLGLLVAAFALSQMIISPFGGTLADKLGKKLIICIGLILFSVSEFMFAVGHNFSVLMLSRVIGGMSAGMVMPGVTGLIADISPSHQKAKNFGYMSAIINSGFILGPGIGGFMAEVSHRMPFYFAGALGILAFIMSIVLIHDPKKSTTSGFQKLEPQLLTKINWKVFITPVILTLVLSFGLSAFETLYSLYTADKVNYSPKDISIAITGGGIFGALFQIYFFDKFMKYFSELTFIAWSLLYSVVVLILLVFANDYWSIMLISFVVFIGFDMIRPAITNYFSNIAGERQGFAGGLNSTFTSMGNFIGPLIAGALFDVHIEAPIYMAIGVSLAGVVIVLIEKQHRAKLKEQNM

[2] = molecular target: T2, NorA (S. aureus quinolone efflux pump), C-terminal decahistidine tag, in PMAL-C8 amphipol (S. aureus) (UniProt Q5HHX4); assay: MST
T2 sequence: T1 sequence

[3] = molecular target: NorA (S. aureus quinolone efflux pump), C-terminal decahistidine tag, in PMAL-C8 amphipol (S. aureus, UniProt Q5HHX4); assay: MST

B1: FITC-NPI-1 (fluorescent analog of NPI-1) (peptide)
peptide: {FITC-βAla}-YYYYAWRVGGYWR-NH2
SMILES: CC(C)[C@H](NC(=O)[C@H](CCCNC(=N)N)NC(=O)[C@H](Cc1c[nH]c2ccccc12)NC(=O)[C@H](C)NC(=O)[C@H](Cc1ccc(O)cc1)NC(=O)[C@H](Cc1ccc(O)cc1)NC(=O)[C@H](Cc1ccc(O)cc1)NC(=O)[C@H](Cc1ccc(O)cc1)NC(=O)CCNC(=S)Nc1ccc2c(c1)C(=O)OC21c2ccc(O)cc2Oc2cc(O)ccc21)C(=O)NCC(=O)NCC(=O)N[C@@H](Cc1ccc(O)cc1)C(=O)N[C@@H](Cc1c[nH]c2ccccc12)C(=O)N[C@@H](CCCNC(=N)N)C(N)=O
Kd [1]: 10 nM

B2: Fab36 R134A (CDRH3 mutant) (Fab, V domains shown)
VH: EVQLVESGGGLVQPGGSLRLSCAASGFTFSSSSIHWVRQAPGKGLEWVASISSSSGSTSYADSVKGRFTISADTSKNTAYLQMNSLRAEDTAVYYCARYSRYYYYAWAVGGYWGGLDYWGQGTLVTVFN
VL: DIQMTQSPSSLSASVGDRVTITCRASQSVSSAVAWYQQKPGKAPKLLIYSASSLYSGVPSRFSGSRSGTDFTLTISSLQPEDFATYYCQQSSSSLITFGQGTKVEIK
Kd [2]: > 14000 nM

B3: Fab25 (synthetic antigen-binding fragment against NorA) (Fab, V domains shown)
VH: EVQLVESGGGLVQPGGSLRLSCAASGFTFSSSSIHWVRQAPGKGLEWVASISSSSGSTSYADSVKGRFTISADTSKNTAYLQMNSLRAEDTAVYYCARWETGYYPYWRMYGFYWALDYWGQGTLVTVFN
VL: B2 VL
Kd [3]: 1200 nM

B4: Fab36 W133A (CDRH3 mutant) (Fab, V domains shown)
VH: B2 VH with W107A, A108R
VL: B2 VL
fold reduction of binding affinity against Fab36 [3]: ~20 fold

B5: Fab36 (synthetic antigen-binding fragment against NorA) (Fab, V domains shown)
VH: B2 VH with A108R
VL: B2 VL
Kd [3]: 140 nM
